Measurements reported in paper PMC11741300.
Like-named read-outs stand apart in the source and are kept apart here.

How the values were obtained:
PARP1 (unlabeled) [1] = molecular target: T1, PARP1 (unlabeled) (Homo sapiens, UniProt P09874 1-1014); assay: mass photometry
Cy3-PARP1 [2] = molecular target: T2, Cy3-PARP1 (Homo sapiens, UniProt P09874 1-1014); assay: smTIRFM
PARP1 (unlabeled) [3] = molecular target: T1, PARP1 (unlabeled); assay: mass photometry; remark: listed apart in the source
Cy3-PARP1 [4] = molecular target: T2, Cy3-PARP1; assay: smTIRFM; remark: listed apart in the source
Cy3-PARP1 [5] = molecular target: T2, Cy3-PARP1; assay: smTIRFM; remark: listed apart in the source
PARP1 (unlabeled) [6] = molecular target: T1, PARP1 (unlabeled); assay: mass photometry; remark: listed apart in the source
Cy3-PARP1 [7] = molecular target: T2, Cy3-PARP1; assay: smTIRFM; remark: listed apart in the source

T1 sequence (P09874 whole entry): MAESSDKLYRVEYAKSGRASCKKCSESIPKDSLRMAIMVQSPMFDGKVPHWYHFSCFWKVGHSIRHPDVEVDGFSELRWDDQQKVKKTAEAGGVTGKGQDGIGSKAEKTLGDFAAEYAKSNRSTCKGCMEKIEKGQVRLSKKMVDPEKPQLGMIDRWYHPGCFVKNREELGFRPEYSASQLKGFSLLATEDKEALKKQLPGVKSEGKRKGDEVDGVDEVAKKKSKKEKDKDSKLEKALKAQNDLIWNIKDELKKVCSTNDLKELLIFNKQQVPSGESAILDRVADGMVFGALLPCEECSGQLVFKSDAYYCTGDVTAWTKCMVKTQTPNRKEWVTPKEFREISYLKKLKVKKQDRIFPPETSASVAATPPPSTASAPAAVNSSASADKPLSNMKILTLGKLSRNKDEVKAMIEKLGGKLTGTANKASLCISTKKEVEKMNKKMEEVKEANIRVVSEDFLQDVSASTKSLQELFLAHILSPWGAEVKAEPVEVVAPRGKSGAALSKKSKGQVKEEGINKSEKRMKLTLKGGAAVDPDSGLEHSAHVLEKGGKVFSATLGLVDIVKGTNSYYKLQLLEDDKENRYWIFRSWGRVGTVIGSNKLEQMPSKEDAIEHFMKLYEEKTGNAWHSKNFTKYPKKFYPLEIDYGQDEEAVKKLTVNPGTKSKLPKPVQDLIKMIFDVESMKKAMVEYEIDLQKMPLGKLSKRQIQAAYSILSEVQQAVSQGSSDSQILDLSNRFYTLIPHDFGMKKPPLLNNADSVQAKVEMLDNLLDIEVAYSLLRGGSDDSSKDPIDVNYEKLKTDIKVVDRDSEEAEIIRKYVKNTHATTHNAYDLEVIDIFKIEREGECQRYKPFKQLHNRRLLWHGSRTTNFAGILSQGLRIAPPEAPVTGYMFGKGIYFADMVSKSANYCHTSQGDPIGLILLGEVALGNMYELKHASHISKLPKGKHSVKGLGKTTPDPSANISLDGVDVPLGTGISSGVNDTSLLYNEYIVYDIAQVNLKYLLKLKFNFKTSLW
T2 sequence (P09874 whole entry): as above

B1: ssDNA (dT)90 (MP) (ssDNA)
DNA: TTTTTTTTTTTTTTTTTTTTTTTTTTTTTTTTTTTTTTTTTTTTTTTTTTTTTTTTTTTTTTTTTTTTTTTTTTTTTTTTTTTTTTTTTT
B1: no binding (PARP1 (unlabeled) [1]).

B2: cKITG4 (smTIRFM) (structured_DNA)
DNA: GGGCGGGCGCGAGGGAGGGGAGG
modifications: 3' biotin
B2 gave a Kd (Cy3-PARP1 [2]) of 0.04 ± 0.002 nM.

B3: nicked (MP) (structured_DNA)
DNA: CATGTAGTCACTATGAGGCATAGTGACTACATGATCTAATGCATTAAGTTCCTTAATGCATTAGAT
B3: binds (PARP1 (unlabeled) [3]).

B4: dsDNA (smTIRFM) (dsDNA)
DNA 1: CATGTAGTCACTATGCTACTGTG
DNA 2: CACAGTAGCATAGTGACTACATG
modifications: 3' biotin on strand 1
B4: binds (Cy3-PARP1 [4]).

B5: cKITG4-PT (smTIRFM) (structured_DNA)
DNA 1: TGGCGACGGCAGCGAGGCGGGCGGGCGCGAGGGAGGGGAGGTCTAATGCATTAAGTTCCTTAATGCATTAGA
DNA 2: GCCTCGCTGCCGTCGCCA
modifications: 3' biotin on strand 2
B5 gave a Kd (Cy3-PARP1 [2]) of 3.24 ± 0.09 nM.

B6: cMYCG4 (structured_DNA)
DNA: TGGGTGGGTAGGGTGGGTTT
modifications: 3' biotin
B6: binds (Cy3-PARP1 [5]).

B7: cKITG4-PT (MP) (structured_DNA)
DNA: CATGTAGTCACTATGATTAGGCATAGTGACTACATGGGGCGGGCGCGAGGGAGGGGAGGATCTAATGCATTAAGTTCGCTTAATGCATTAGAT
B7: binds (PARP1 (unlabeled) [6]).

B8: nicked (smTIRFM) (structured_DNA)
DNA 1: TGGCGACGGCAGCGAGGCTCTAATGCATTAAGTTCCTTAATGCATTAGA
DNA 2: GCCTCGCTGCCGTCGCCA
modifications: 3' biotin on strand 2
Work on B8 yielded a Kd (Cy3-PARP1 [2]) of 3.96 ± 0.2 nM and a Kd (Cy3-PARP1 [7]) of 2.67 ± 0.16 nM.
